Changes are numbered by the printed parent chain. In names and notes the source's numbering stands.
B1: CyPPO19 R89A + V165C + L327T + F360V: variant of CyPPO19 PPO protein (SEQ ID NO: 1) (protein)
chain: MSEVDVAIVGGGLSGLSLAWRLQQSAPQYSVVLLEASDRLGGNITTQTAEGFVWELGPNSFAPTPALLQLIAEVGLQSELIRGDRHLPAYIYWRGQLYPLQPTRPLALATSNLLSPWGKVRAALGALGFVPPYLGSGDESVNSFFRRHLGQEVAERLVAPFVSGCYAGDPQQLSAAAAFRRIAQLEKLGGGLIAGALHLRRQQAPKPKPPTSVQMRPGELGSFKEGLAALPRAIAQQLKAPIHLQTPVQEITPDPKGGYLLRSGEQTWRARSVVLATPAYQTAELVAPFQPAIARVLATIPYPTVACVVLAYPAGLGRSVRPGFGVTIPRSQGIRTLGTIWSSCLFPQRTPAGWQVFTSVIGGATDPDLASLSEEAIVQQVQQDLNRLLDLPAAKARLLGMKVWRRAIPQYMVGYPEQWQQVTHALSQTPGLFLCSNYAEGVALGDRVEHGNRTAAAVAAYLSGGQP
modifications: Synthetic_PPO of Thermosynechococcus elongatus PKUAC-SCTE542 (comprising GenBank No. CP032152.1)
B2: CyPPO19 R89A + A167L + V305L + F360T: variant of CyPPO19 PPO protein (SEQ ID NO: 1) (protein)
chain: B1 chain with C165V, A167L, V305L, T327L, V360T
modifications: Synthetic_PPO of Thermosynechococcus elongatus PKUAC-SCTE542 (comprising GenBank No. CP032152.1)
B3: CyPPO19 R89A + V165S + I408R + F360L: variant of CyPPO19 PPO protein (SEQ ID NO: 1) (protein)
chain: B1 chain with C165S, T327L, V360L, I408R
modifications: Synthetic_PPO of Thermosynechococcus elongatus PKUAC-SCTE542 (comprising GenBank No. CP032152.1)

Each molecule was assayed on PPO-deficient BT3 E. coli (ΔPPO) (assay: PPO-inhibiting herbicide tolerance test of PPO variants in E. coli (growth on herbicide-containing LB agar)). Conditions: CyPPO19 variants in BT3 (ΔPPO) E. coli; LB agar with 0 to 2,000 μM herbicide, 37° C., dark, 16-20 hours.
Assay type: cell-based
Outline: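 Tolerance was scored against wild-type enzyme: '−' for equal growth, one '+' per 10-fold gain, up to '+++++'. ΔPPO BT3 cells carrying variant plasmids, spotted as a 10-fold dilution series from OD600=0.5, grew 16-20 h at 37° C. in the dark on ampicillin LB agar containing 0 to 2,000 μM herbicide.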

Row | Molecule | tolerance level relative to wild type, Carfentrazone | tolerance level relative to wild type, Flumioxazin | tolerance level relative to wild type, Fomesafen | tolerance level relative to wild type, Oxyfluorfen | tolerance level relative to wild type, Saflufenacil | tolerance level relative to wild type, Sulfentrazone | tolerance level relative to wild type, Tiafenacil
1 | B1 | + (‘+’ per each 10-fold resistance) | ++++ (‘+’ per each 10-fold resistance) | + (‘+’ per each 10-fold resistance) | + (‘+’ per each 10-fold resistance) | +++ (‘+’ per each 10-fold resistance) | ++ (‘+’ per each 10-fold resistance) | +++ (‘+’ per each 10-fold resistance)
2 | B2 | + (‘+’ per each 10-fold resistance) | ++ (‘+’ per each 10-fold resistance) | ++ (‘+’ per each 10-fold resistance) | ++ (‘+’ per each 10-fold resistance) | +++ (‘+’ per each 10-fold resistance) | ++ (‘+’ per each 10-fold resistance) | +++ (‘+’ per each 10-fold resistance)
3 | B3 | + (‘+’ per each 10-fold resistance) | ++++ (‘+’ per each 10-fold resistance) | ++ (‘+’ per each 10-fold resistance) | ++ (‘+’ per each 10-fold resistance) | ++++ (‘+’ per each 10-fold resistance) | +++ (‘+’ per each 10-fold resistance) | ++++ (‘+’ per each 10-fold resistance)

From US12698507B2, “Methods and compositions for conferring and/or enhancing herbicide tolerance using protoporphyrinogen IX oxidase of various cyanobacteria or variant thereof” (FarmHannong Co., Ltd., priority 2019, dated 2026)
